In publication doi:10.1101/207324:

What was measured:
[1] = target: T1, human S100A5 (human); test: ITC
T1 sequence (P33763 1-92, looked up): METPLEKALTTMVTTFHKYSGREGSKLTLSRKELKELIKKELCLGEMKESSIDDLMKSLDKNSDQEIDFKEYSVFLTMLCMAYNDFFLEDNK

[2] = target: human S100A6 (human); test: ITC

- Kd [1]: > 100 µM
- Kd [2]: 20 µM
Substance: peptide from Siah-interacting protein (SIP) (from UniProt Q9HB71 188-218)
